Data taken from patent US4642335A, “Anthracycline compounds bound to hydrophilic polypeptides” (Ajinomoto Co., Inc., priority 1984, dated 1987).

System: mouse L1210 leukemia
Assay: antitumor activity against mouse L1210 leukemia, life prolongation rate
Type: in vivo
Conditions: once a day for five days starting 24 hours after tumor cell injection, control survival day = 100%
Protocol: (§1) These HB-6 substances were tested for their antitumor activity in terms of mouse L1210 leukemia. L1210 leukemia cells (1×10^5) were abdominally injected to each mouse, and the test sample was administered once a day for consecutive five days, with the first administration being started 24 hours after injection of the tumor cells. The result is summarized in Table 1, in which the antitumor activity of each drug is expressed as life prolongation rate, taking the survival day for the control group as 100%.
as §1, with “HBW-6” for “HB-6”, “2,” for “1,”

| Molecule | Life Prolongation Rate (dose 2 mg/Kg) | Life Prolongation Rate (dose 1 mg/Kg) |
| --- | --- | --- |
| COc1cccc2c1C(=O)c1c(O)c3c(c(O)c1C2=O)C[C@@](O)(C(=O)CO)C[C@@H]3O[C@H]1C[C@H](N)[C@H](O)[C@H](C)O1 [Adriamycin, adriamycin, reference compound] | 150% |  |
| CC[C@@]1(O)C[C@H](O[C@H]2C[C@H](N(C)C)[C@H](O[C@H]3C[C@H](O)[C@H](O[C@H]4CCC(=O)[C@H](C)O4)[C@H](C)O3)[C@H](C)O2)c2c(cc3c(c2O)C(=O)c2c(O)cccc2C3=O)[C@H]1C(=O)OC [Aclacinomycin A, aclacinomycin A, reference compound] | 135% |  |
| HB-10(A): NCS-apoprotein and daunomycin combined at molar ratio 1:1 (conjugate, UniProt P0A3R9 35-147, looked up, complex with daunomycin, 1:1) Neocarzinostatin: AAPTATVTPSSGLSDGTVVKVAGAGLQAGTAYDVGQCAWVDTGVLACNPADFSSVTADANGSASTSLTVRRSFEGFLFDGTRWGTVDCTTAACQVGLSDAAGNGPEGVAISFN | 250% |  |
| HB-10(B): NCS-apoprotein and daunomycin combined at molar ratio 1:10 (conjugate, UniProt P0A3R9 35-147, looked up, daunomycin conjugate, 1:10) Neocarzinostatin: AAPTATVTPSSGLSDGTVVKVAGAGLQAGTAYDVGQCAWVDTGVLACNPADFSSVTADANGSASTSLTVRRSFEGFLFDGTRWGTVDCTTAACQVGLSDAAGNGPEGVAISFN | 265% |  |
| HBW-10(B): NCS-apoprotein and daunomycin bound through hydrogen bond and/or hydrophobic bond, molar ratio 1:5 (conjugate, UniProt P0A3R9 35-147, looked up, noncovalent complex with daunomycin, 1:5) Neocarzinostatin: AAPTATVTPSSGLSDGTVVKVAGAGLQAGTAYDVGQCAWVDTGVLACNPADFSSVTADANGSASTSLTVRRSFEGFLFDGTRWGTVDCTTAACQVGLSDAAGNGPEGVAISFN |  | 270% |
| HB-22(B): NCS-apoprotein and γ-rhodomycin Y bound together, molar ratio 1:5 (conjugate, UniProt P0A3R9 35-147, looked up, γ-rhodomycin Y conjugate, 1:5) Neocarzinostatin: AAPTATVTPSSGLSDGTVVKVAGAGLQAGTAYDVGQCAWVDTGVLACNPADFSSVTADANGSASTSLTVRRSFEGFLFDGTRWGTVDCTTAACQVGLSDAAGNGPEGVAISFN |  | 150% |
| HB-21(A): NCS-apoprotein and aclacinomycin A bound together, molar ratio 1:1 (conjugate, UniProt P0A3R9 35-147, looked up, complex with aclacinomycin A, 1:1) Neocarzinostatin: AAPTATVTPSSGLSDGTVVKVAGAGLQAGTAYDVGQCAWVDTGVLACNPADFSSVTADANGSASTSLTVRRSFEGFLFDGTRWGTVDCTTAACQVGLSDAAGNGPEGVAISFN | 142% |  |
| HBW-20(B): NCS-apoprotein and adriamycin bound together, molar ratio 1:5 (conjugate, UniProt P0A3R9 35-147, looked up, adriamycin conjugate, 1:5) Neocarzinostatin: AAPTATVTPSSGLSDGTVVKVAGAGLQAGTAYDVGQCAWVDTGVLACNPADFSSVTADANGSASTSLTVRRSFEGFLFDGTRWGTVDCTTAACQVGLSDAAGNGPEGVAISFN |  | 245% |
| HBW-20(A): NCS-apoprotein and adriamycin bound together, molar ratio 1:1 (conjugate, UniProt P0A3R9 35-147, looked up, noncovalent complex with adriamycin, 1:1) Neocarzinostatin: AAPTATVTPSSGLSDGTVVKVAGAGLQAGTAYDVGQCAWVDTGVLACNPADFSSVTADANGSASTSLTVRRSFEGFLFDGTRWGTVDCTTAACQVGLSDAAGNGPEGVAISFN |  | 268% |
| HB-20(A): NCS-apoprotein and adriamycin bound together, molar ratio 1:1 (conjugate, UniProt P0A3R9 35-147, looked up, complex with adriamycin, 1:1) Neocarzinostatin: AAPTATVTPSSGLSDGTVVKVAGAGLQAGTAYDVGQCAWVDTGVLACNPADFSSVTADANGSASTSLTVRRSFEGFLFDGTRWGTVDCTTAACQVGLSDAAGNGPEGVAISFN | 200% |  |
| HB-10(D): NCS-apoprotein and daunomycin combined at molar ratio 4:1 (conjugate, UniProt P0A3R9 35-147, looked up, complex with daunomycin, 4:1) Neocarzinostatin: AAPTATVTPSSGLSDGTVVKVAGAGLQAGTAYDVGQCAWVDTGVLACNPADFSSVTADANGSASTSLTVRRSFEGFLFDGTRWGTVDCTTAACQVGLSDAAGNGPEGVAISFN | 200% |  |
| HB-10(C): NCS-apoprotein and daunomycin combined at molar ratio 2:1 (conjugate, UniProt P0A3R9 35-147, looked up, daunomycin conjugate, 2:1) Neocarzinostatin: AAPTATVTPSSGLSDGTVVKVAGAGLQAGTAYDVGQCAWVDTGVLACNPADFSSVTADANGSASTSLTVRRSFEGFLFDGTRWGTVDCTTAACQVGLSDAAGNGPEGVAISFN | 230% |  |
| HB-18(B): NCS-apoprotein and cosmomycin A bound together, molar ratio 1:5 (conjugate, UniProt P0A3R9 35-147, looked up, cosmomycin A conjugate, 1:5) Neocarzinostatin: AAPTATVTPSSGLSDGTVVKVAGAGLQAGTAYDVGQCAWVDTGVLACNPADFSSVTADANGSASTSLTVRRSFEGFLFDGTRWGTVDCTTAACQVGLSDAAGNGPEGVAISFN | 170% |  |
| HB-20(B): NCS-apoprotein and adriamycin bound together, molar ratio 1:5 (conjugate, UniProt P0A3R9 35-147, looked up, complex with adriamycin, 1:5) Neocarzinostatin: AAPTATVTPSSGLSDGTVVKVAGAGLQAGTAYDVGQCAWVDTGVLACNPADFSSVTADANGSASTSLTVRRSFEGFLFDGTRWGTVDCTTAACQVGLSDAAGNGPEGVAISFN | 205% |  |
| HBW-18(B): NCS-apoprotein and cosmomycin A bound together, molar ratio 1:5 (conjugate, UniProt P0A3R9 35-147, looked up, complex with cosmomycin A, 1:5) Neocarzinostatin: AAPTATVTPSSGLSDGTVVKVAGAGLQAGTAYDVGQCAWVDTGVLACNPADFSSVTADANGSASTSLTVRRSFEGFLFDGTRWGTVDCTTAACQVGLSDAAGNGPEGVAISFN |  | 175% |
| HB-21(B): NCS-apoprotein and aclacinomycin A bound together, molar ratio 1:5 (conjugate, UniProt P0A3R9 35-147, looked up, aclacinomycin A conjugate, 1:5) Neocarzinostatin: AAPTATVTPSSGLSDGTVVKVAGAGLQAGTAYDVGQCAWVDTGVLACNPADFSSVTADANGSASTSLTVRRSFEGFLFDGTRWGTVDCTTAACQVGLSDAAGNGPEGVAISFN | 145% |  |
| HB-22(A): NCS-apoprotein and γ-rhodomycin Y bound together, molar ratio 1:1 (conjugate, UniProt P0A3R9 35-147, looked up, complex with gamma-rhodomycin Y, 1:1) Neocarzinostatin: AAPTATVTPSSGLSDGTVVKVAGAGLQAGTAYDVGQCAWVDTGVLACNPADFSSVTADANGSASTSLTVRRSFEGFLFDGTRWGTVDCTTAACQVGLSDAAGNGPEGVAISFN |  | 145% |
| HBW-18(A): NCS-apoprotein and cosmomycin A bound together, molar ratio 1:1 (conjugate, UniProt P0A3R9 35-147, looked up, complex with cosmomycin A, 1:1) Neocarzinostatin: AAPTATVTPSSGLSDGTVVKVAGAGLQAGTAYDVGQCAWVDTGVLACNPADFSSVTADANGSASTSLTVRRSFEGFLFDGTRWGTVDCTTAACQVGLSDAAGNGPEGVAISFN |  | 170% |
| HBW-22(B): NCS-apoprotein and γ-rhodomycin Y bound together, molar ratio 1:5 (conjugate, UniProt P0A3R9 35-147, looked up, complex with gamma-rhodomycin Y, 1:5) Neocarzinostatin: AAPTATVTPSSGLSDGTVVKVAGAGLQAGTAYDVGQCAWVDTGVLACNPADFSSVTADANGSASTSLTVRRSFEGFLFDGTRWGTVDCTTAACQVGLSDAAGNGPEGVAISFN |  | 162% |
| HBW-22(A): NCS-apoprotein and γ-rhodomycin Y bound together, molar ratio 1:1 (conjugate, UniProt P0A3R9 35-147, looked up, γ-rhodomycin Y conjugate, 1:1) Neocarzinostatin: AAPTATVTPSSGLSDGTVVKVAGAGLQAGTAYDVGQCAWVDTGVLACNPADFSSVTADANGSASTSLTVRRSFEGFLFDGTRWGTVDCTTAACQVGLSDAAGNGPEGVAISFN |  | 158% |
| HB-18(A): NCS-apoprotein and cosmomycin A bound together, molar ratio 1:1 (conjugate, UniProt P0A3R9 35-147, looked up, cosmomycin A conjugate, 1:1) Neocarzinostatin: AAPTATVTPSSGLSDGTVVKVAGAGLQAGTAYDVGQCAWVDTGVLACNPADFSSVTADANGSASTSLTVRRSFEGFLFDGTRWGTVDCTTAACQVGLSDAAGNGPEGVAISFN | 168% |  |
